1 protein from US20050032696A1 (published 2005) can be followed below.

This series deals with the molecule itself. The series is described as follows: yeast two-hybrid mating assay, β-galactosidase reporter. As to the method:
The dual reporter YM4271 yeast strains containing the USE-B1 and USE-B1b tandem repeats have been described previously (O'Mahoney et al. 1998). A two-hybrid mating assay was used to examine the transactivation and dimerisation functions of hMusTRD1α1. The yeast reporter strain Y190 (CLONTECH) was transformed with 1 μg of pAS2-1, pAS2-1:hMusTRD1α1, or pAS2-1:ΔhMusTRD1α1 using an alkali cation method (BIO 101, Inc., La Jolla, Calif.) and mated with Y187 cells carrying either pACTII, pGAD10:hMusTRD1α1 or, pACTII:ΔhMusTRD1α1. Transformants were selected on complete synthetic media plates lacking tryptophan and leucine (BIO 101). Diploid cells were grown to saturation and used to inoculate test cultures (OD₆₀₀=0.1) that were grown for a further 24 h at 30° C. Cells were harvested in 100 μl Breaking Buffer (100 mM Tris-HCl pH 8, 20% glycerol, 5 mM PMSF, 2 mM DTT) and lysed by vortexing with glass beads. Protein concentration was determined by the Bradford method (Bio-Rad Laboratories, Sydney, NSW). Protein extracts (20 μg) were assayed for β-galactosidase activity with a chemiluminescence detection kit (CLONTECH) and a Turner Designs 20/20 luminometer (Sunnyvale, Calif.).

B1: ΔhMusTRD1α1 (truncated human MusTRD1α1, amino acids 1-458) (other)
chain: MALLGKRCDVPTNGCGPDRWNSAFTRKDEIITSLVSALDSMCSALSKLNAEVACVAVHDESAFVVGTEKGRMFLNARKELQSDFLRFCRGPPWKDPEAEHPKKVQRGEGGGRSLPRSSLEHGSDVYLLRKMVEEVFDVLYSEALGRASVVPLPYERLLREPGLLAVQGLPEGLAFRRPAEYDPKALMAILEHSHRIRFKLKRPLEDGGRDSKALVELNGVSLIPKGSRDCGLHGQAPKVPPQDLPPTATSSSMASFLYSTALPNHAIRELKQEAPSCPLAPSDLGLSRPMPEPKATGAQDFSDCCGQKPTGPGGPLIQNVHASKRILFSIVHDKSEKWDAFIKETEDINTLRECVQILFNSRYAEALGLDHMVPVPYRKIACDPEAVEIVGIPDKIPFKRPCTYGVPKLKRILEERHSIHFIIKRMFDERIFTGNKFTKDTTKLEPASPPEDTSAEVS
notes: the fusion parts are not written into the chain; In the COS-7 Western blot it was expressed from pCI-neo; also called ΔMusTRD; hMusTRD1α1458aa
In the case of B1, the binding result is listed as “binds”.
